Source: patent US20250051444A1 (published 2025)
Read-outs that look alike come from different tables or passages of the source.

T1: human LRRC15 (leucine-rich repeat containing protein 15) (human, UniProt Q8TF66 22-581)
T1 chain: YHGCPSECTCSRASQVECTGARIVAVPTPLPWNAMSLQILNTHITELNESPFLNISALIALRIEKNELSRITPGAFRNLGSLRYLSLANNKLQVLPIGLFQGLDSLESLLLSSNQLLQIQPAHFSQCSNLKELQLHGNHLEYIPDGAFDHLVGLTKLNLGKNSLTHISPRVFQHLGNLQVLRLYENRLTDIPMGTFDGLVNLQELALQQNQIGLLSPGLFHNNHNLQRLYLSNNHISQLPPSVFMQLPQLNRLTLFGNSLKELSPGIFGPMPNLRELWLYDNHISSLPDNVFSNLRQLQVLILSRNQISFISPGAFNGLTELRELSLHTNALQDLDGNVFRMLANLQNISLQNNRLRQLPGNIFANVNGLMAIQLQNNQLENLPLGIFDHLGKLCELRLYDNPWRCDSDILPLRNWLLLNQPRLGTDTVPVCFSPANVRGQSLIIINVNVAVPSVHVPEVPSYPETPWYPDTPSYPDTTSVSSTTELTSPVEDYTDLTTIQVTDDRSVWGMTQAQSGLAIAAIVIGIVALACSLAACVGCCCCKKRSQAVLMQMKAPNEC

T2: cynomolgus LRRC15 (cynomolgus, UniProt G7NYR2 22-581)
T2 chain: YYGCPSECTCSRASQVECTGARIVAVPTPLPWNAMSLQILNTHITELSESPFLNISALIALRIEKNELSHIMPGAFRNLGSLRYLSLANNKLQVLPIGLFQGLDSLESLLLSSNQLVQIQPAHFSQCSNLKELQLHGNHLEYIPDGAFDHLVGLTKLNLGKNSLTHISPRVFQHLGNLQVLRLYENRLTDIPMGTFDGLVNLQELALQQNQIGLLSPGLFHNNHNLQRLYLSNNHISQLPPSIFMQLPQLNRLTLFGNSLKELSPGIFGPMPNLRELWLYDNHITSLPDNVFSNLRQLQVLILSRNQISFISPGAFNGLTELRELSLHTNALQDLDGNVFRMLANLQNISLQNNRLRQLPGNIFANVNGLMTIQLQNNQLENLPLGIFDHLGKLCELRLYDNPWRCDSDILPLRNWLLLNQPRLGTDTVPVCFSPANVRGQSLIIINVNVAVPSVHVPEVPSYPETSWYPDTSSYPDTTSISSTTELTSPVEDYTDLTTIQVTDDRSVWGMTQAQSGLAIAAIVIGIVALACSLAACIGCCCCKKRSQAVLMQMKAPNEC


Legend:
Assay in all cases: FACS binding to CHO cells
[1] = biological target: T1, human LRRC15 (leucine-rich repeat …)
cynomolgus LRRC15 [2] = biological target: T2, cynomolgus LRRC15
[3] = biological target: T1, human LRRC15 (leucine-rich repeat …)
cynomolgus LRRC15 [4] = biological target: T2, cynomolgus LRRC15

EC50 [1] [pM] | EC50 (cynomolgus LRRC15 [2]) [pM] | EC50 [3] [pM] | EC50 (cynomolgus LRRC15 [4]) [pM] | Binder
633 | 190 | – | – | L15-08 (antibody, V domains shown) VH: QVQLVESGGGLVKPGGSLRLSCAASGFTFSDYYMSWIRQAPGKGLEWVSDISVSSSYTNYADSVKGRFTISRDNAKNSLYLQMNSLRAEDTAVYYCARLGGYRSFFSTDDGDSLDYWGQGTLVTVSS VL: not shown
259 | 277 | – | – | L15-07 (antibody, V domains shown) VH: QVQLVQSGAEVKKPGSSVKVSCKASGGTFSTYAISWVRQAPGQGLEWMGGITPMFGTPNYAQKFQGRVTITADESTSTAYMELSSLRSEDTAVYYCARGDWYDYHFDYWGQGTLVTVSS VL: QSALTQPASVSGSPGQSITISCTGTSSDVGGYNYVSWYQQHPGKAPKLMIYEVSNRPSGVSNRFSGSKSGNTASLTISGLQAEDEADYYCQSYANRDNFVVFGGGTKLTVL
– | – | 1150 | 1480 | 153-L06C (bispecific antibody) chain 1: not shown chain 2: EPKSCDKTHTCPPCPAPEFEGGPSVFLFPPKPKDTLMISRTPEVTCVVVDVSHEDPEVKFNWYVDGVEVHNAKTKPREEQYNSTYRVVSVLTVLHQDWLNGKEYKCKVSNKALPASIEKTISKAKGQPREPQVCTLPPSRDELTKNQVSLTCLVEGFYPSDIAVEWESNGQPENNYKTTPPVLDSDGSFFLYSDLTVDKSRWQQGNVFSCSVMHEALHNHYTQESLSLSPGK
– | – | 488 | 627 | 315-L06C08 (bispecific antibody) not shown heavy: QVQLVESGGGLVKPGGSLRLSCAASGFTFSDYYMSWIRQAPGKGLEWVSDISVSSSYTNYADSVKGRFTISRDNAKNSLYLQMNSLRAEDTAVYYCARLGGYRSFFSTDDGDSLDYWGQGTLVTVSSASTKGPSVFPLAPSSKSTSGGTAALGCLVKDYFPEPVTVSWNSGALTSGVHTFPAVLQSSGLYSLSSVVTVPSSSLGTQTYICNVNHKPSNTKVDKRVEPKSCDKTHTCPPCPAPEFEGGPSVFLFPPKPKDTLMISRTPEVTCVVVDVSHEDPEVKFNWYVDGVEVHNAKTKPREEQYNSTYRVVSVLTVLHQDWLNGKEYKCKVSNKALPASIEKTISKAKGQPREPQVCTLPPSRDELTKNQVSLTCLVEGFYPSDIAVEWESNGQPENNYKTTPPVLDSDGSFFLYSDLTVDKSRWQQGNVFSCSVMHEALHNHYTQESLSLSPGK light: not shown
376 | 239 | – | – | L15-06 (antibody, V domains shown) VH: EVQLLESGGGLVQPGGSLRLSCAASGFTFSSYYMSWVRQAPGKGLEWVADISVSGSYTNYADSVKGRFTISRDNSKNTLYLQMNSLRAEDTAVYYCARIGSYRSFFSTDDGDSLDYWGQGTLVTVSS VL: not shown
286 | 165 | – | – | L15-03 (antibody, V domains shown) VH: QVQLVQSGAEVKKPGSSVKVSCKASGGTFSSYTISWVRQAPGQGLEWMGGIIPMFGTANYAQKFQGRVTITADESTSTAYMELSSLRSEDTAVYYCARGVALLATDFDYWGQGTLVTVSS VL: QSALTQPASVSGSPGQSITISCTGTSSDVGGYNYVSWYQQHPGKAPKLMIYEVSNRPSGVSNRFSGSKSGNTASLTISGLQAEDEADYYCQSWTHDNSVVFGGGTKLTVL
